Assay results from US20220185898A1 (Alector, published 2022).
Each block holds one binder with its values, some of them ahead of it. No end group written: not given here. *: point of attachment. Biotin = O=C1N[C@H]2[C@H](CS[C@H]2CCCCC(=O)*)N1

Assays:
[1] = molecular target: T1, biotinylated human Sortilin monomer (human, UniProt Q99523 78-755, limits assumed, biotinylated (Sulfo-NHS-biotin)); assay: ForteBio, peptide format: human Sortilin monomer (100 nM) on biotinylated PGRN peptide on SA sensors
T1 construct: monomer cut from the Fc fusion with IdeS; used unbiotinylated in solution in some formats; also called Bt-hSort; b-H Sort
Description: SA sensors were soaked in PBS for 10 min prior to analysis. […] The data was prepared for analysis with ForteBio Data Analysis Software version 8.1.0.36 as follows. The data was y-axis aligned and inter-step corrected to the beginning of the Sortilin capture step and then cropped to show only the Sortilin capture and antibody interaction steps.

[2] = molecular target: T2, human Sortilin Fc fusion protein (human, UniProt Q99523 78-755); assay: ForteBio, avid;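 also: whole IgG captured on AHQ sensors, then contacted with Sortilin Fc fusion antigen at 100 nM, followed by an off-rate phase in buffer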
T2 construct: whole entry named; also called hSort-Fc
Description: (§1) The affinity for the Sortilin antibodies was determined by measuring their KD by ForteBio. […] Briefly, ForteBio affinity measurements were performed by loading IgGs on-line onto AHQ sensors. Sensors were equilibrated off-line in assay buffer for 30 min and then monitored on-line for 60 seconds for baseline establishment. For avid binding measurement, sensors with loaded IgGs were exposed to 100 nM antigen (human or mouse Sortilin Fc fusion) for 3, afterwards they were transferred to assay buffer for 3 min for off-rate measurement.
(§2) The binding affinity of each anti-Sortilin antibody was determined by measuring their KD by ForteBio or MSD-SET at room temperature. […] Briefly, ForteBio affinity measurements were performed by loading IgGs on-line onto AHQ sensors. Sensors were equilibrated off-line in assay buffer for 30 min and then monitored on-line for 60 seconds for baseline establishment. Sensors with loaded IgGs were exposed to 100 nM antigen for 5 minutes, then transferred to assay buffer for 5 min for off-rate measurement. Kinetics were analyzed using the 1:1 binding model.

[3] = molecular target: T3, mouse Sortilin Fc fusion protein (mouse; human, UniProt Q6PHU5 74-754); assay: ForteBio, avid;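 also: whole IgG captured on AHQ sensors, then contacted with Sortilin Fc fusion antigen at 100 nM, followed by an off-rate phase in buffer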
T3 construct: whole entry named; also called mSort-Fc
Description: as §1, §2

[4] = molecular target: T4, human Sortilin expressed on 293 / HEK293T cells (human, UniProt Q99523 78-830); assay: FACS, 293 cells;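 also: antibodies at 10 µg/ml bound to cells for 1 h on ice, detected with PE-labelled anti-human secondary antibody by flow cytometry, reported as mean fluorescence intensity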
T4 construct: full-length recombinant human Sortilin; also called hSort; SORT1

[5] = molecular target: T5, mouse Sortilin expressed on 293 / HEK293T cells (mouse, UniProt Q6PHU5 74-825); assay: FACS, 293 cells;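 also: antibodies at 10 µg/ml bound to cells for 1 h on ice, detected with PE-labelled anti-human secondary antibody by flow cytometry, reported as mean fluorescence intensity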
T5 construct: full-length recombinant mouse Sortilin; also called mSort; msSort

[6] = molecular target: T4, human Sortilin expressed on 293 / …; assay: cell binding, HEK293T, FACS
[7] = molecular target: T5, mouse Sortilin expressed on 293 / …; assay: cell binding, HEK293T, FACS
[8] = molecular target: T1, biotinylated human Sortilin monomer; assay: MSD-SET, Fab
Description: (§3) Antibodies (20 nM in PBS) were coated onto standard bind MSD-ECL plates overnight at 4° C. or at room temperature for 30 min. Plates were then blocked with 1% BSA for 30 min with shaking at 700 rpm, followed by three washes with wash buffer (PB SF+0.05% Tween 20). SET samples were applied and incubated on the plates for 150 s with shaking at 700 rpm followed by one wash. Antigen captured on a plate was detected with 250 ng/ml sulfotag-labeled streptavidin in PBSF by incubation on the plate for 3 min. The plates were washed three times with wash buffer and then read on the MSD Sector Imager 2400 instrument using 1× Read Buffer T with surfactant. The percent free antigen was plotted as a function of titrated antibody in Prism and fit to a quadratic equation to extract the KD. To improve throughput, liquid handling robots were used throughout MSD-SET experiments, including SET sample preparation.

[9] = molecular target: T1, biotinylated human Sortilin monomer; assay: ForteBio, Fab
Description: (§4) The affinity of the anti-Sortilin antibodies was determined by measuring their KD by ForteBio and MSD. […] Briefly, ForteBio affinity measurements were performed by loading immunoglobulins (IgGs) on-line onto AHQ sensors. Sensors were equilibrated off-line in assay buffer for 30 min and then monitored on-line for 60 seconds for baseline establishment. For avid binding measurement, sensors with loaded IgGs were exposed to 100 nM antigen (human or mouse Sortilin Fc fusion) for 3 min, afterwards they were transferred to assay buffer for 3 min for off-rate measurement. […] Monovalent binding measurements were obtained by loading human or mouse Sortilin Fc fusion antigens to AHQ sensor and followed by exposure to −100 nM Sortilin antibody Fab. […] Kinetics data were fit using a 1:1 binding model in the data analysis software provided by ForteBio.

[10] = molecular target: T6, biotinylated mouse Sortilin monomer (mouse, UniProt Q6PHU5 74-754, limits assumed, biotinylated); assay: ForteBio, Fab
T6 construct: also called Bt-msSort
Description: as §4

[11] = molecular target: T6, biotinylated mouse Sortilin monomer; assay: MSD-SET, Fab
Description: as §3

[12] = molecular target: T4, human Sortilin expressed on 293 / …; assay: FACS, HEK293T + hSort
Description: (§5) Antibodies were diluted in FACS buffer (PBS+2% FBS+0.01% NaAzide). After incubation on ice for 1 h, cells were washed three times in FACS buffer and incubated with anti-human PE conjugated secondary antibody (BD Biosciences, 1:100 dilution) for 30 min on ice. Then cells were washed twice in 200 ul FACS buffer, and subsequently analyzed on a FACS Canto or iQE FACS screening instrument (Intellicyt Corp).

[13] = molecular target: T5, mouse Sortilin expressed on 293 / …; assay: FACS, HEK293T + msSort
Description: as §5

[14] = molecular target: T7, recombinant human Sortilin, His-tagged (R&D Systems) (human, UniProt Q99523 78-755); assay: Biacore SPR, His-captured Sortilin
T7 construct: bought; whole entry named; also called His-captured SORT1

[15] = molecular target: T7, recombinant human Sortilin, His-tagged …; assay: ELISA, biotinylated PGRN on immobilized Sortilin
[16] = molecular target: T5, mouse Sortilin expressed on 293 / …; assay: FACS, time course of binding and endocytosis of human PGRN-DyLight650 by HEK293T cells expressing mouse Sortilin

B1: S-2 (antibody, V domains shown)
VH: not shown
VL: DIQMTQSPSSLSASVGDRVTITCRASQSISSYLNWYQQKPGKAPKLLIYAASSLQSGVPSRFSGSGSGTDFTLTISSLQPEDFATYYCQQSDVSPITFGGGTKVEIK
notes: IgG; also called S-02
- Kd [2]: 0.517 nM
- Kd [3]: 1.07 nM
- MFI [4]: 8430
- MFI [5]: 22400
- Kd [6]: 1.1 nM
- Kd [7]: 6.6 nM

B2: S-2-11 Fab (Fab, V domains shown)
VH: QVQLVQSGAEVKKPGASVKVSCKASGYTFLAYYMHWVRQAPGQGLEWMGWINPSWGSTSYAQKFQGRVTMTRDTSISTAYMELSRLRSDDTAVYYCARGKRSSGWYEGYGMDVWGQGTTVTVSS
VL: DIQMTQSPSSLSASVGDRVTITCRASQSISSYLNWYQQKPGKAPKLLIYAASSLQSGVPSRFSGSGSGTDFTLTISSLQPEDFATYYCQQSDVSPITFGGGTKVEIK
notes: Fab by papain digestion
- Kd [8]: 0.011 nM
- Kd [9]: 0.261 nM
- Kd [10]: 7.59 nM

B3: S-22 (antibody, V domains shown)
VH: QVQLVQSGAEVKKPGSSVKVSCKASGGTFSSYAISWVRQAPGQGLEWMGGIIPIFGTASYAQKFQGRVTITADESTSTAYMELSSLRSEDTAVYYCARQGRKTGYYYYYGMDVWGQGTTVTVSS
VL: DIQMTQSPSTLSASVGDRVTITCRASQSISSWLAWYQQKPGKAPKLLIYKASSLESGVPSRFSGSGSGTEFTLTISSLQPDDFATYYCQQADGHITFGGGTKVEIK
notes: IgG
- Kd [2]: 0.99 nM
- Kd [3]: 1.12 nM
- MFI [4]: 8940
- MFI [5]: 23200
- Kd [6]: 2.4 nM
- Kd [7]: 5 nM

B4: S-22-3 Fab (Fab, V domains shown)
VH: QVQLVQSGAEVKKPGSSVKVSCKASGGTFRSYAISWVRQAPGQGLEWMGGIIPGFGTAWYAQKFQGRVTITADESTSTAYMELSSLRSEDTAVYYCARQGRKTGYYYYYGMDVWGQGTTVTVSS
VL: DIQMTQSPSTLSASVGDRVTITCRASQSISSWLAWYQQKPGKAPKLLIYKASSLESGVPSRFSGSGSGTEFTLTISSLQPDDFATYYCQQADGHITFGGGTKVEIK
notes: Fab by papain digestion
- Kd [8]: 0.097 nM
- Kd [11]: 1.2 nM
- Kd [9]: 0.698 nM
- Kd [10]: 1.43 nM

B7: S-22-3 (antibody, V domains shown)
VH: QVQLVQSGAEVKKPGSSVKVSCKASGGTFRSYAISWVRQAPGQGLEWMGGIIPGFGTAWYAQKFQGRVTITADESTSTAYMELSSLRSEDTAVYYCARQGRKTGYYYYYGMDVWGQGTTVTVSS
VL: DIQMTQSPSTLSASVGDRVTITCRASQSISSWLAWYQQKPGKAPKLLIYKASSLESGVPSRFSGSGSGTEFTLTISSLQPDDFATYYCQQADGHITFGGGTKVEIK
notes: IgG
- Kd [12]: 1.08 nM
- Kd [13]: 3.63 nM

B8: S-22-7 (antibody, V domains shown)
VH: QVQLVQSGAEVKKPGSSVKVSCKASGGTFSSYAISWVRQAPGQGLEWMGGIIPGFGRANYAQKFQGRVTITADESTSTAYMELSSLRSEDTAVYYCARQGRKTGYYYYYGMDVWGQGTTVTVSS
VL: DIQMTQSPSTLSASVGDRVTITCRASQSISSWLAWYQQKPGKAPKLLIYKASSLESGVPSRFSGSGSGTEFTLTISSLQPDDFATYYCQQADGHITFGGGTKVEIK
notes: IgG
- Kd [12]: 2.65 nM
- Kd [13]: 4.78 nM

B10: S-15 (antibody, V domains shown)
VH: QVQLVQSGAEVKKPGASVKVSCKASGYTFTSYYMSWVRQAPGQGLEWMGIINPSGGSTSYAQKFQGRVTMTRDTSTSTVYMELSSLRSEDTAVYYCARDPSGIAAAGPASRYYYGMDVWGQGTTVTVSS
VL: EIVMTQSPATLSVSPGERATLSCRASQSVSSNLAWYQQKPGQAPRLLIYGASTRATGIPARFSGSGSGTEFTLTISSLQSEDFAVYYCQQARLGPWTFGGGTKVEIK
notes: IgG
- Kd [2]: 2.3 nM
- Kd [3]: 1.4 nM
- MFI [4]: 8740
- MFI [5]: 17600
- Kd [6]: 3.3 nM
- Kd [7]: 6.4 nM

B11: S-15-3 Fab (Fab, V domains shown)
VH: QVQLVQSGAEVKKPGASVKVSCKASGYTFTSTYMSWVRQAPGQGLEWMGIINPYGGSTSYAQKFQGRVTMTRDTSTSTVYMELSSLRSEDTAVYYCARDPSGIAAAGPASRYYYGMDVWGQGTTVTVSS
VL: EIVMTQSPATLSVSPGERATLSCRASQSVSSNLAWYQQKPGQAPRLLIYGASTRATGIPARFSGSGSGTEFTLTISSLQSEDFAVYYCQQARLGPWTFGGGTKVEIK
notes: Fab by papain digestion
- Kd [8]: 0.26 nM
- Kd [11]: 0.11 nM
- Kd [9]: 0.943 nM
- Kd [10]: 0.769 nM

B12: S-15-14 Fab (Fab, V domains shown)
VH: QVQLVQSGAEVKKPGASVKVSCKASGYTFTSQYMSWVRQAPGQGLEWMGIINPYGGSTSYAQKFQGRVTMTRDTSTSTVYMELSSLRSEDTAVYYCARDPSGIAAAGPASRYYYGMDVWGQGTTVTVSS
VL: EIVMTQSPATLSVSPGERATLSCRASQSVSSNLAWYQQKPGQAPRLLIYGASTRATGIPARFSGSGSGTEFTLTISSLQSEDFAVYYCQQARLGPWTFGGGTKVEIK
notes: Fab by papain digestion
- Kd [8]: 0.19 nM
- Kd [11]: 0.1 nM
- Kd [9]: 1.04 nM
- Kd [10]: 0.758 nM

The remaining lines, values ahead:

- binding result [1]: binds
Binder: Biotin-TKCLRREAPRWDAPLRDPALRQLL (also called hPGRN peptide) [biotinylated Progranulin C-terminal peptide]

- Kd [8]: 0.098 nM
- Kd [11]: 0.57 nM
- Kd [9]: 0.508 nM
- Kd [10]: 0.751 nM
B5: S-22-7 Fab (Fab, V domains shown)
VH: QVQLVQSGAEVKKPGSSVKVSCKASGGTFSSYAISWVRQAPGQGLEWMGGIIPGFGRANYAQKFQGRVTITADESTSTAYMELSSLRSEDTAVYYCARQGRKTGYYYYYGMDVWGQGTTVTVSS
VL: DIQMTQSPSTLSASVGDRVTITCRASQSISSWLAWYQQKPGKAPKLLIYKASSLESGVPSRFSGSGSGTEFTLTISSLQPDDFATYYCQQADGHITFGGGTKVEIK
notes: Fab by papain digestion

- Kd [12]: 0.81 nM
- Kd [13]: 5.12 nM
B6: S-22-9 (antibody, V domains shown)
VH: QVQLVQSGAEVKKPGSSVKVSCKASGGTFRNYAISWVRQAPGQGLEWMGGIIPIGGWANYAQKFQGRVTITADESTSTAYMELSSLRSEDTAVYYCARQGRKTGYYYYYGMDVWGQGTTVTVSS
VL: DIQMTQSPSTLSASVGDRVTITCRASQSISSWLAWYQQKPGKAPKLLIYKASSLESGVPSRFSGSGSGTEFTLTISSLQPDDFATYYCQQADGHITFGGGTKVEIK
notes: IgG

- Kd [8]: 0.0048 nM
- Kd [9]: 0.575 nM
- Kd [10]: 3.29 nM
B9: S-22-9 Fab (Fab, V domains shown)
VH: QVQLVQSGAEVKKPGSSVKVSCKASGGTFRNYAISWVRQAPGQGLEWMGGIIPIGGWANYAQKFQGRVTITADESTSTAYMELSSLRSEDTAVYYCARQGRKTGYYYYYGMDVWGQGTTVTVSS
VL: DIQMTQSPSTLSASVGDRVTITCRASQSISSWLAWYQQKPGKAPKLLIYKASSLESGVPSRFSGSGSGTEFTLTISSLQPDDFATYYCQQADGHITFGGGTKVEIK
notes: Fab by papain digestion

- Kd [14]: 14.3 nM
- Kd [15]: 14 nM
- binding result [16]: binds
B13: recombinant human Progranulin (Adipogen) (ligand, UniProt P28799 18-593, looked up)
chain: TRCPDGQFCPVACCLDPGGASYSCCRPLLDKWPTTLSRHLGGPCQVDAHCSAGHSCIFTVSGTSSCCPFPEAVACGDGHHCCPRGFHCSADGRSCFQRSGNNSVGAIQCPDSQFECPDFSTCCVMVDGSWGCCPMPQASCCEDRVHCCPHGAFCDLVHTRCITPTGTHPLAKKLPAQRTNRAVALSSSVMCPDARSRCPDGSTCCELPSGKYGCCPMPNATCCSDHLHCCPQDTVCDLIQSKCLSKENATTDLLTKLPAHTVGDVKCDMEVSCPDGYTCCRLQSGAWGCCPFTQAVCCEDHIHCCPAGFTCDTQKGTCEQGPHQVPWMEKAPAHLSLPDPQALKRDVPCDNVSSCPSSDTCCQLTSGEWGCCPIPEAVCCSDHQHCCPQGYTCVAEGQCQRGSEIVAGLEKMPARRASLSHPRDIGCDQHTSCPVGQTCCPSLGGSWACCQLPHAVCCEDRQHCCPAGYTCNVKARSCEKEVVSAQPATFLARSPHVGVKDVECGEGHFCHDNQTCCRDNRQGWACCPYRQGVCCADRRHCCPAGFRCAARGTKCLRREAPRWDAPLRDPALRQLL
modifications: biotinylated or DyLight650-labelled in some assays
notes: also called hPGRN; PGRN
